Assay results taken from article PMC2679042 (2009).
One block for each molecule: values may come before it.

What was measured:
proMMP-2 (Homo sapiens) = proMMP-2 (Homo sapiens) (UniProt P08253); details: cited from earlier work
proMMP-2 = biological target: T1, proMMP-2 (Homo sapiens, UniProt P08253); experiment: tryptophan fluorescence quenching
T1 chain: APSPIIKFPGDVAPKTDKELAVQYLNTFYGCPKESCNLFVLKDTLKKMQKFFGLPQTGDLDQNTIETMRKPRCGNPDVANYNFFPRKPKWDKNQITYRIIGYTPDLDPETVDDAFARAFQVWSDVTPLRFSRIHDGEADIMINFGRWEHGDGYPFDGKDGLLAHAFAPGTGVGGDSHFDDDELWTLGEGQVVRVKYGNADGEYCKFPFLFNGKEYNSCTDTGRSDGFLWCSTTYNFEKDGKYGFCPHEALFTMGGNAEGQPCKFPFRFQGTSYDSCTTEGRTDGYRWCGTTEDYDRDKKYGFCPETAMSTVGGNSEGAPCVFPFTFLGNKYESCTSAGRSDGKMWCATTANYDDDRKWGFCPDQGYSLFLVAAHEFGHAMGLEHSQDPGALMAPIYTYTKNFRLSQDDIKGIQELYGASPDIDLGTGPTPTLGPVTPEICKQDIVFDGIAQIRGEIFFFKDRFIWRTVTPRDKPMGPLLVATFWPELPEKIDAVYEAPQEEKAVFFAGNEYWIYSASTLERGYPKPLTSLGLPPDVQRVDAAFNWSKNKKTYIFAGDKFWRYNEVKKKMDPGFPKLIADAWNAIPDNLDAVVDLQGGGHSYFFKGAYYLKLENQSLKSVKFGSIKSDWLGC

Molecule: bone sialoprotein (from UniProt P21815)
- Kd (proMMP-2 (Homo sapiens)): 2.9 nM

- Kd (proMMP-2): 270 nM
B1: bone sialoprotein (protein)
chain: FSMKNLHRRVKIEDSEENGVFKYRPRYYLYKHAYFYPHLKRFPVQGSSDSSEENGDDSSEEEEEEEETSNEGENNEESNEDEDSEAENTTLSATTLGYGEDATPGTGYTGLAAIQLPKKAGDITNKATKEKESDEEEEEEEEGNENEESEAEVDENEQGINGTSTNSTEAENGNGSSGGDNGEEGEEESVTGANAEDTTETGRQGKGTSKTTTSPNGGFEPTTPPQVYRTTSPPFGKTTTVEYEGEYEYTGANEYDNGYEIYESENGEPRGDNYRAYEDEYSYFKGQGYDGYDGQNYYHHQ
